{"source": "patent US6932973B2", "about": "“Peptides which stimulate the expression of the cytokines of inflammation and promote tissue regeneration” (Centre National de la Recherche Scientifique—CNRS, priority 1999, dated 2005)", "key": {"[1]": {"tested_on": "PBMCs treated by tetanus toxin"}, "[2]": {"tested_on": "cytokines of inflammation (TNF-alpha, IL-1, IL-6)", "assay": "Expression/production of the cytokines of inflammation", "assay_type": "cell-based, human"}, "soleus muscle": {"tested_on": "soleus muscle", "assay_type": "in vivo, Wistar rat", "conditions": "1 μg injected in 50 μl into crushed rat soleus, 4 days"}, "IL-6": {"tested_on": "IL-6", "assay": "Expression of IL-6 by PBMCs (ELISA)", "assay_type": "cell-based, human", "description": "(§1) Quantitative determination of these cytokines was performed using an ELISA test from R&D.\nQuantitative determination of these cytokines was performed after 7 days of incubation using an ELISA test from R&D.\n(§2) The cells were isolated from peripheral blood of normal subjects (blood donors) and collected in a Vacutainer tube containing EDTA. Mononucleated cells were separated by ficoll gradient, counted and adjusted to 10^6 per ml. The cells were incubated for 3 or 7 days at 37° C. in humid atmosphere with 5% CO2 in the presence of variable concentrations of HARP ranging from 1 to 1000 ng/ml or other peptides which are mentioned in the legends of the figures."}, "[3]": {"tested_on": "human mononucleated cells of the peripheral blood (PBMCs)", "assay": "Incorporation of tritiated thymidine in PBMCs (proliferation)", "assay_type": "cell-based", "conditions": "for activation response of PBMCs compared to the HARP protein: 1 ng/ml HARP, 1 μg/ml peptides (FIG. 6)", "description": "The PBMCs were cultured for 7 days in RPMI culture medium containing 10% fetal calf serum in the absence of or in the presence of 1 ng/ml HARP protein or 1 μg/ml of peptides 1 or 2. The incorporation of tritiated thymidine was determined as described above.\nHuman mononucleated cells originating from different healthy donors were isolated from peripheral blood after centrifugation on a Ficoll-Hypaque pad (Pharmacia Biotech) in accordance with the manufacturer's instructions. The cells were washed then cultured in RPMI 1640 medium supplemented by 10% heat-inactivated fetal calf serum (56° C., 30 min), 100 units/ml of penicillin and 100 μg/ml of streptomycin. The cells were inoculated at the rate of 10^6 cells per ml in a 96-well (round bottoms) culture plate (Costar). They were cultured for 7 days in the presence or not of human recombinant HARP protein produced in E. coli at the concentration of 100 ng/ml. In the last 18 hours of culture, 1 μCi of tritiated thymidine was added to each of the wells. The radioactivity incorporated in the cell nuclei was then measured using a scintillation counter."}, "HUVEC cells": {"tested_on": "HUVEC cells", "assay": "Mitogenic activity on HUVEC cells (cell counting)", "assay_type": "cell-based", "conditions": "wells coated with 100 ng/ml, 72 hours of culture, triplicate", "description": "The cells used were HUVEC cells (Clonetics) used between passages 1 to 5. Each of the wells of a 48-well culture plate (Costar) was incubated for 1 night at 4° C. with a solution of HARP (100 ng/ml), of purified HARP peptide (100 ng/ml) or solely the negative control buffer. After rinsing the wells with a PBS solution, the cells were inoculated at the rate of 2×10^4 cells per cm^2 in the DMEM culture medium containing 2% of fetal calf serum. Each quantitative determination was performed in triplicate.\nInduction of cellular proliferation was assessed by counting the cells after 72 hours of culture."}, "IL-2": {"tested_on": "IL-2", "assay": "IL-2 levels after incubation of PBMCs with HARP", "assay_type": "cell-based, human", "conditions": "after incubation of PBMCs with HARP factor"}, "[4]": {"tested_on": "lymphoid cells (PBMC culture)", "assay": "Determination of the amplified lymphoid cell population in a PBMC culture", "assay_type": "cell-based, human", "conditions": "HARP 1 μg/ml, PBMC culture 5 days", "description": "The cells were isolated from peripheral blood of normal subjects (blood donors) and collected in a Vacutainer tube containing EDTA. Mononucleated cells were separated by ficoll gradient, counted and adjusted to 10^6 per ml. The cells were incubated for 5 days at 37° C. in humid atmosphere with 5% CO2 in the presence of HARP or other peptides at concentrations which are mentioned in each of the Examples described.\nTable II presents the effects of the HARP molecule tested at a concentration of 1 μg/ml on the proliferation of lymphoid cells."}, "phosphacan": {"target": "phosphacan (Rattus norvegicus, UniProt Q62656)", "sequence (Q62656 25-1616 isoform Q62656-3 limits assumed)": "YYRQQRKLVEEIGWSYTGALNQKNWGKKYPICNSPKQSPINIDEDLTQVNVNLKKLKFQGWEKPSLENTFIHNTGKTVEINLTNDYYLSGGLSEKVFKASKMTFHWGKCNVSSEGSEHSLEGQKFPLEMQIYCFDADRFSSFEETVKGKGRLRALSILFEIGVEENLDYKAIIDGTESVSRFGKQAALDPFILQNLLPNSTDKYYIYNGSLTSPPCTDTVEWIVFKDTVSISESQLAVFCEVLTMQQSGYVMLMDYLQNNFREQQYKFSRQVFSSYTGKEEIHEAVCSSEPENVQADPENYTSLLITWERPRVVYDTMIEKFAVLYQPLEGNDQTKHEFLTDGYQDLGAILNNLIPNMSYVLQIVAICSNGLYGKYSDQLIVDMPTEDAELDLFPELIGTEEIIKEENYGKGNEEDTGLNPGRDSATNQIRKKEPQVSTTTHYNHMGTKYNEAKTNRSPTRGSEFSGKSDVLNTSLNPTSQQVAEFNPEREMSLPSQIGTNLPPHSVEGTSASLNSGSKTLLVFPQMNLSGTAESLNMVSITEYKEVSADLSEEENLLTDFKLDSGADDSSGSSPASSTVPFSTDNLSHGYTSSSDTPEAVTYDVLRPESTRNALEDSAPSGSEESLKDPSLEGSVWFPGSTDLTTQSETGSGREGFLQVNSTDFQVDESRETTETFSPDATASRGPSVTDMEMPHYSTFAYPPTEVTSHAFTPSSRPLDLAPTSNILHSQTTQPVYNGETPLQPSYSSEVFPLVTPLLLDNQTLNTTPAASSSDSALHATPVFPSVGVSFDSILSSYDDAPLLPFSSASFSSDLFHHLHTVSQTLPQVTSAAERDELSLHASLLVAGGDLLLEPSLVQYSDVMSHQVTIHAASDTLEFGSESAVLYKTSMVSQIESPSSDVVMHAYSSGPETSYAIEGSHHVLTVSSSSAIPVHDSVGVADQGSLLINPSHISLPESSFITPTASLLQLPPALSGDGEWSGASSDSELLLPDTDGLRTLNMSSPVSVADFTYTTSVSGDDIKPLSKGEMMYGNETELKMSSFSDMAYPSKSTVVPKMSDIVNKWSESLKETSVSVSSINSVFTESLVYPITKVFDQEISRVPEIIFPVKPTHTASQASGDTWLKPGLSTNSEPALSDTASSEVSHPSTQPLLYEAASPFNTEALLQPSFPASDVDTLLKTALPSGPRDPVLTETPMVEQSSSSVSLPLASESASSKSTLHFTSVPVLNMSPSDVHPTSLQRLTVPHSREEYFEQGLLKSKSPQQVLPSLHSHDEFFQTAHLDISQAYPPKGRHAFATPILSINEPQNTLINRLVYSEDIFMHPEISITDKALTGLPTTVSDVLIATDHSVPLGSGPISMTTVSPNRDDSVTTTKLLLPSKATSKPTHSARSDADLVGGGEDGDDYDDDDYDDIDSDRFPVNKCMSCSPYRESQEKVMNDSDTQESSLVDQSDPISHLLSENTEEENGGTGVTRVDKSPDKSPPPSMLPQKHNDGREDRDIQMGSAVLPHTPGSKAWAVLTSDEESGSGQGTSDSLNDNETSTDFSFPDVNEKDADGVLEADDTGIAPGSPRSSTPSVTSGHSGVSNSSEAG", "conditions": "cited from earlier work"}, "syndecan-3": {"target": "syndecan-3 (Rattus norvegicus, UniProt P33671)", "sequence (P33671 45-442)": "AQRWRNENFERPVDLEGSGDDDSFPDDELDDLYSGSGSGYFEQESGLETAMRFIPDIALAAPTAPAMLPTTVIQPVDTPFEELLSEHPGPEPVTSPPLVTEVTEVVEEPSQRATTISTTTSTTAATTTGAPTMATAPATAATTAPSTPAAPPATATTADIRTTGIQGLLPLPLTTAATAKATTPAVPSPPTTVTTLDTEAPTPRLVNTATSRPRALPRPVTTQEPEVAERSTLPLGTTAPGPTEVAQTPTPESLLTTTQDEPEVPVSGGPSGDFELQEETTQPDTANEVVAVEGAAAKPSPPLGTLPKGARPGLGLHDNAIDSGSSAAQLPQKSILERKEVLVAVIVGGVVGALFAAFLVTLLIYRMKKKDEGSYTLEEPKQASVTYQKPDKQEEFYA", "conditions": "read-out: apparent Kd; cited from earlier work"}, "IL-1β": {"tested_on": "IL-1β", "assay": "Expression of IL-1 by PBMCs (ELISA)", "assay_type": "cell-based, human", "conditions": "HARP 1 to 1000 ng/ml, 3 or 7 days", "description": "as §1, §2"}, "NIH 3T3 cells": {"tested_on": "NIH 3T3 cells", "conditions": "read-out: Kd of strong affinity HARP binding sites; cited from earlier work"}, "[5]": {"tested_on": "PBMCs treated by an anti-CD3"}, "TNF-α": {"tested_on": "TNF-α", "assay": "Expression of TNF-α by PBMCs (ELISA)", "assay_type": "cell-based, human", "conditions": "HARP 1 to 1000 ng/ml, 3 or 7 days", "description": "as §1, §2"}, "[6]": {"conditions": "added to PBMCs, result not shown"}, "[7]": {"conditions": "peptides, 7 days of incubation (FIG. 10)"}, "[8]": {"conditions": "7 days, anti-CD3 1/100, HARP 1 ng/ml"}}, "note": "“Also recorded” adds a separate entry of the source. Like-named read-outs stand apart in the source and are kept apart here."}
{"molecule": "tetanus toxin [reference compound]", "values": [{"measurement": "incorporated tritiated thymidine", "setting": "[1]", "result": "43,000±500 cpm"}, {"measurement": "stimulation of incorporation of tritiated thymidine in relation to the control", "setting": "[1]", "result": 71, "unit": "times"}]}
{"molecule": "angiogenin: molecule presenting a homologous protein domain [reference compound]", "values": [{"measurement": "expression of the inflammatory cytokines", "setting": "[2]; [6]", "result": "Augmentation of the expression"}]}
{"molecule": "NH2-AEAGKKEKPEKKVKKSDCGEW-COOH (H-AEAGKKEKPEKKVKKSDCGEW-OH) [Peptide 1]", "values": [{"measurement": "number of mononucleated cells in treated muscle versus peptide 2 or PBS", "setting": "soleus muscle", "result": "much higher"}, {"measurement": "expression of IL-6", "setting": "IL-6; [7]", "result": "capable of stimulating the expression of IL-6"}, {"measurement": "activation response of PBMCs compared to the HARP protein", "setting": "[3]; 7 days", "result": "close to half that of HARP"}, {"measurement": "activation response of PBMCs compared to the control", "setting": "[3]; 7 days, 1 μg/ml peptide (FIG. 6)", "result": "more than two times higher"}]}
{"molecule": "GKKEKPEKKVKKSD [HARP peptide, N terminal peptide (amino acids 1-14) of human HARP obtained by recombination in a eukaryote expression system]", "values": [{"measurement": "Number of cells", "setting": "HUVEC cells", "result": "12,000 ± 14,000"}]}
{"molecule": "NH2-AESKKKKKEGKKQEKMLD-COOH (H-AESKKKKKEGKKQEKMLD-OH) [Peptide 2, peptide corresponding to the terminal COOH part of HARP; 18 amino acids]", "values": [{"measurement": "expression of IL-6", "setting": "IL-6; [7]", "result": "capable of stimulating the expression of IL-6"}, {"measurement": "activation response of PBMCs compared to the HARP protein", "setting": "[3]; 7 days", "result": "close to two times higher"}]}
{"molecule": "MK: protein that exhibits 50% homology in amino acids with HARP (protein, UniProt P21741 21-143, looked up) Midkine: VAKKKDKVKKGGPGSECAEWAWGPCTPSSKDCGVGFREGTCGAQTQRIRCRVPCNWKKEFGADCKYKFENWGACDGGTGTKVRQGTLKKARYNAQCQETIRVTKPCTPKTKAKAKAKKGKGKD", "values": [{"measurement": "stimulation of tritiated thymidine incorporation in PBMCs", "setting": "[3]; MK 0.1 to 500 ng/ml", "result": "no induction; also recorded: No stimulation"}]}
{"molecule": "HARP: angiogenic growth factor; human recombinant HARP protein produced in E. coli (protein, UniProt P21246 33-168, looked up) Pleiotrophin: GKKEKPEKKVKKSDCGEWQWSVCVPTSGDCGLGTREGTRTGAECKQTMKTQRCKIPCNWKKQFGAECKYQFQAWGECDLNTALKTRTGSLKRALHNAECQKTVTISKPCGKLTKPKPQAESKKKKKEGKKQEKMLD", "values": [{"measurement": "IL-2 levels", "setting": "IL-2", "result": "no increase"}, {"measurement": "CCD2 positive cells", "setting": "[4]", "result": 95, "unit": "%"}, {"measurement": "CCD4+ CD45RA+ cells", "setting": "[4]", "result": 15, "unit": "%"}, {"measurement": "CCD4+ CD45RO+ cells", "setting": "[4]", "result": 49, "unit": "%"}, {"measurement": "CCD4 positive cells", "setting": "[4]", "result": 68, "unit": "%"}, {"measurement": "CCD8 positive cells", "setting": "[4]", "result": 22, "unit": "%"}, {"measurement": "CCD16/56 positive cells", "setting": "[4]", "result": 18, "unit": "%"}, {"measurement": "CCD19 positive cells", "setting": "[4]", "result": 4, "unit": "%"}, {"measurement": "CCD25 positive cells", "setting": "[4]", "result": 47, "unit": "%"}, {"measurement": "CCD45RA positive cells", "setting": "[4]", "result": 34, "unit": "%"}, {"measurement": "CCD45RO positive cells", "setting": "[4]", "result": 64, "unit": "%"}, {"measurement": "Variation of CCD4+ CD45RA+ versus control", "setting": "[4]", "result": "−31", "unit": "%"}, {"measurement": "Variation of CCD4+ CD45RO+ versus control", "setting": "[4]", "result": "+133%"}, {"measurement": "Variation of CCD45RO versus control", "setting": "[4]", "result": "+113%"}, {"measurement": "RA/RO (CCD4+ CD45RA+ / CCD4+ CD45RO+)", "setting": "[4]; CD4+ cells", "result": 0.3, "unit": "ratio"}, {"measurement": "RA/RO (CCD45RA / CCD45RO)", "setting": "[4]; all cells", "result": 0.5, "unit": "ratio"}, {"measurement": "cell mortality", "setting": "[1]", "result": "high cell mortality"}, {"measurement": "incorporated tritiated thymidine", "setting": "[1]; 7 days", "result": "3500±200", "unit": "cpm"}, {"measurement": "stimulation of incorporation of tritiated thymidine in relation to the control", "setting": "[1]; 7 days", "result": 5.8, "unit": "times"}, {"measurement": "Kd", "setting": "phosphacan; read-out: Kd, binding sites of strong affinity", "result": 0.25, "unit": "nM"}, {"measurement": "Kd", "setting": "phosphacan; read-out: Kd, binding sites of weak affinity", "result": 3, "unit": "nM"}, {"measurement": "Kd", "setting": "syndecan-3", "result": 0.8, "unit": "nM"}, {"measurement": "expression of IL-1β", "setting": "IL-1β", "result": "capable of inducing in a dose-dependent manner"}, {"measurement": "expression of IL-6", "setting": "IL-6; HARP 1 to 1000 ng/ml, 3 or 7 days", "result": "capable of inducing in a dose-dependent manner"}, {"measurement": "Kd", "setting": "NIH 3T3 cells", "result": 0.6, "unit": "nM"}, {"measurement": "Number of cells", "setting": "HUVEC cells", "result": "129,000 ± 26,000"}, {"measurement": "expression of the inflammatory cytokines", "setting": "[2]; HARP molecule denatured", "result": "No expression"}, {"measurement": "stimulation of the production of cytokines of inflammation", "setting": "[2]; in vitro and in vivo", "result": "more than 100 times"}, {"measurement": "incorporated tritiated thymidine", "setting": "[5]; [8]", "result": 3500, "unit": "cpm"}, {"measurement": "stimulation of incorporation of tritiated thymidine in relation to the control", "setting": "[5]; [8]", "result": 5.8, "unit": "times"}, {"measurement": "incorporation of thymidine", "setting": "[5]; HARP 10 and 100 ng/ml in the presence of anti-CD3", "result": "a weaker and a very low incorporation"}, {"measurement": "cellular mortality", "setting": "[5]; HARP alone at 10 and 100 ng/ml", "result": "not seen"}, {"measurement": "cell death", "setting": "HIV; HARP 100 ng/ml, PBMCs from an AIDS patient", "result": "noteworthy cell death"}, {"measurement": "HARP concentration at which production of viral antigen p24 is maximal", "setting": "HIV; PBMCs from an AIDS patient (CD4<200/mm^3), 3 days, HARP 0.1-100 ng/ml", "result": 1, "unit": "ng/mL"}, {"measurement": "concentration at which active on the proliferation of lymphocytes", "setting": "[3]", "result": "~10", "unit": "pM"}, {"measurement": "increase in the number of cells in relation to the untreated control", "setting": "[3]; HARP 100 ng/ml, experiment no. 7", "result": 2.9, "unit": "times"}, {"measurement": "HARP concentration at which maximum effect is attained", "setting": "[3]; dose-response 0.1 to 500 ng/ml", "result": 1, "unit": "ng/mL"}, {"measurement": "expression of TNF-α", "setting": "TNF-α", "result": "capable of inducing in a dose-dependent manner"}]}
{"molecule": "tat protein: molecule presenting a homologous protein domain (protein, UniProt P04608 1-86, looked up) Protein Tat: MEPVDPRLEPWKHPGSQPKTACTNCYCKKCCFHCQVCFITKALGISYGRKKRRQRRRAHQNSQTHQASLSKQPTSQPRGDPTGPKE", "values": [{"measurement": "expression of the inflammatory cytokines", "setting": "[2]; [6]", "result": "Augmentation of the expression"}]}
